These results are taken from article PMC10477244.

This data set addresses SARS-CoV-2 virus particles (spike presumed target) (SARS-CoV-2 (isolate not in material)) (UniProt P0DTC2).

For “GGTATTGAGGGTCGCATCGTAATAGCGCATGTTGTGAGGCAGGCGCGAATCAGCTCGTGAGATGGCTCTAACTCTCCTCT [aptamer T (Apt@T2)]”, the binding signal is 0.74 A450.
Then “GGTATTGAGGGTCGCATCGTTACTGGACCAAACAGCACAAAGGACGCCCATAAACCCGGATGGCTCTAACTCTCCTCT [aptamer R (Apt@R2)]”, with 0.83 A450.
